Fewer inactive variants are shown than the library holds.
B1: TPR 5TU (parent)
chain: GGAUCUUCUCGAUCUAACAAAAAAGACAAAUCUGCCACAAAGCUUGAGAGCAUCUUCGGAUGCAGAGGCGGCAGCCUUCGGUGGCGCGAUAGCGCCAACGUUCUCAACUAUGACACGCAAAACGCGUGCUCCGUUGAAUGGAGUUUAUCAUG

Variants of: B1
Experiment: polymerase ribozyme fitness, log enrichment relative to wild type (log ratio); higher = more active; in vitro selection for triplet polymerase activity
Method in brief: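 Input and output libraries were sequenced on Illumina after a single in vitro selection round, run in triplicate on PCR-built, transcribed mutant libraries of each subunit of a heterodimeric triplet polymerase ribozyme. Selection annealed libraries to a biotinylated primer, the partner subunit and triplets, incubated them frozen at −7 °C, then gel-excised extended constructs for streptavidin-bead capture and RT-PCR. Genotypes with ≥10 input reads and ≥1 read per output were kept. Fitness is the logarithm, taken in base 2, of genotype enrichment divided by wild-type enrichment, using inverse-variance-weighted replicate averages.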

Variant | polymerase ribozyme fitness (log ratio)
GGAUCUUUUCGAUCGAACAAAAAAGACAAAUCUGCCACAAAGCAUGAGAGCAUUUUCGGAUGCAGAGGCGGCAGCCUUCGGUGACGCGAUAGCGCCAACGGUCUCAACUUUGACGCGCAAAACGCGUGCUCCUUUGAAUGGAGUUUAUCAUG [C8U U15G U44A C54U G84A U101G A110U A115G G133U] | ≤ -4.2
GGAUCUUCACGAUCUCACAAAAAAGACAAAUCUGCCACAAAGCUUGAGAGCAUCUUCGGAUGCAGAGGCGGCAGCCUUCGGUGGAGAGAUAGCGCCAACGUUCUCAACUAUGACACGCAAAACGCGUGCUCCGUUGAAUGGAGUUUAUCAUG [U9A A16C C85A C87A] | ≤ -4.2
GGAUCUUCACGAUCUAACAAAAAAGACAAAUCUGCCACAAAGCUUGAGAGCAUCUUCGGUCGCAGAGGCGGUAGCCUUCGGUGGCGCGAUAGUGCCAACGUUCUCAACUAUGACACGCAAAACGCGUGCUCCGUUGAAUGGAGUUUAUCAUG [U9A A60U U61C C72U C93U] | ≤ -4.2
GGAUCUUUUCGAUCUAACAAAAAAGACAAAGCUGCCACAGAUCUUGAGAGCCUCUUCGGAUGCAGAGGCGGCAGCCUUGGGUGACGCGAUAGCGCCAACGUUAUCAACUAUGACACGCAAAACGCGUGCUCCAUUGAAUGGAGUUUAGCAUG [C8U U31G A40G G42U A52C C79G G84A C103A G133A U148G] | ≤ -4.2
GGAUCUUCACGAUCUAACAAAAAUGACAAAUCUGCCACAAAGCUUGAGAGCAUCAUCGGAUGCAGAGUCGGCAGCCUUCGGCGGCGCGAUAGCACCAACGUUCUCAACUUUGACACGCAAAACGCGUGCUCCGUUAAAUGGAGUUUAUCAUG [U9A A24U U55A G68U U82C G94A A110U G136A] | ≤ -4.2
GGAUCUUCACGAUCUAACAAGAAAGACCAAUCUGCCACAAAGCUAGAGAGCCUCUUCGGAUGCAGAGGCGGCAGCCUUCGGUGGCGAGAUAGCGCCAACGUUCUCAACUAUGACACGCAAAACGCGUACUCCGUUUAAUGGAGUUUAUCAUG [U9A A21G A28C U45A A52C C87A G128A G136U] | ≤ -4.2
GGAUCUUCACGAUCUAACAAAAAAGACAAAUCUGCCACAAAGCUUGGGAGCAUCUUCGGAUGCAGAGGAGGCAGCCUUCGGUGGCGCGAUAGCACGAACGCUCUCAACUAUGACACGCAACACGCGUGCUCCGUUGAGUGGAGUUUAUCAUG [U9A A47G C69A G94A C96G U101C A121C A138G] | ≤ -4.2
GGAUCUUCACGAUCUAACAAAAAAGACAAAUCUGCCACAAAGCUUGAGAGCAUCUUCGGAUGCAGAGGCGGCAGCCUUCGGUGGCGUGAUAGCGCCAACGUUCUCAACUAUGACACGCAAAACGCGUGCUCCGUUGAAUGGAGUUUAUCAUG [U9A C87U] | -2.96
GGAUCUUCACGAUCUAACAAAAAAGAUAAAUCUGCCACAAAGCUUGAGAGCAUCUUCGGAUGCAGAGGCGGUAGCCUUCGGUGGCGCGAUAGCGCCAACGUUCUCAACUAUGACACGCAAAACGCGUGCUCCGUUGAAUGGAGUUUAUCAUG [U9A C27U C72U] | ≤ -4.2
GGAUCUUCACGAUCUAACAAAAAAGACAAAUCUGCCACAAAGCUUGAGAGCAUCUUCGGAUGCAGAGGCGGCAGCCUUCGGUGGCGCGAUAGCACCAACGUUCUCAACUAUGACACGCAAAACGCGUGCUCCGUUGAAUGGAGUUUAUCAUG [U9A G94A] | -3.69
GGAUCUUCACGAUCUAACAAAAAAGACAAAUCUGCCACAAAGCUUGAGAGCAUCUUCGGAUGCAGAGGCGGCAGCCUUCGGUGGCGCGAUAGAGCCAACGUUCUCAACUAUGACACGCAAAACGCGUGCUCCGUUGAAUGGCGUUUAUCAUG [U9A C93A A142C] | -3.81
GGAUCUUCACGAUCUAACAAAAAAGACUAAUCUGCCACAAAGCUUGAGAGCAUCUUCGGAUGCAGGGGCGGCAGCCUUGGGUGGCGCGAUAGUGCCAACGUUCUCAACUAUGACACGCAAAACGCGUGCUCCGUUGAAUGGAGUUUAUCAUG [U9A A28U A66G C79G C93U] | ≤ -4.2
GGAUCUUCACGUUCUAACAAAAAAGACAAAUUUGCCUCAAAGCUUGAGAGCAUCUUCGGAUGCAGAGGCGGCAGCCUUCGGUGGCGCGAUACCGCCAACGUUCUCAACUAUGACACGCAAAACGCGUGCUCCGUUGAAUGGAGUUUAUCAUG [U9A A12U C32U A37U G92C] | ≤ -4.2
GGAUCUUCACGAUCUAACAAAAAAGACAAAUCUGCCACAAAGCUUGAAAGCAUCUUCGGAUGCAGAGGCGGCAGCCUUCCGUGGCGGGAUAGCGCCAACGUUCUCAUCUAUGUCACGCAAAACGCGUGCUCCGUUGAAUGGAGUUUAUCAUG [U9A G48A G80C C87G A107U A113U] | ≤ -4.2
GGAUCUUCCCGAUCUAACAAUAAAGACCAAUCUGCCACAAAGCUUGAGACCAUCUUCGGAUGCAGAGGCGGCAGCCUUCGGUGGCGCGAUAGCUCCAACGUCCUCAACUAUGACACGCAAAACGCGUGCUCCGUUGAAUGGAGUUUAUCAUG [U9C A21U A28C G50C G94U U102C] | -4.16
GGAUCUUCACGAUCUAACAAAAAAGACCAAUCUGCCACAAAGCUUGAGAGCAUCUUCGGAUGCCGAGGCGGUAGCCUGCGGUGGCGCGAUAGCGCCAACGUUCUCAACUAUGACACGCAAAACGCGUGCUCCGUUGAAUGGAGUUUAUCAUG [U9A A28C A64C C72U U78G] | ≤ -4.2
GGAUCUUCACGAUCUAACAAAAAAGACAAAUCUGCCACAUAGCUUGAGAGCAUCUUCGUAUGCAGAGGCGGCAGCCUUCGGUGGCGCGAUAGCGCCAACGUUCUCAACUAUGACACGCAAAACGCGUGCUCCGAUGAAUGGAGUUUAUCAUG [U9A A40U G59U U134A] | ≤ -4.2
GGAUCUUCACGAGCUAACAAAAAAGACACAUCUGCCACAAAGCUUGAGAGCAUCUUCGGAUGCAGAGGCGGCAGCCUUCGGGGUCGCGAUGGCUCCAACGUUCUCAACUAUGACACGCAAAACGCGUCCUCCAUUGAUUGGAGUUUAUCAUG [U9A U13G A29C U82G G84U A91G G94U G128C G133A A138U] | ≤ -4.2
GGAUCUUUUCGAUCUAACAAAAAAGACAAAUCUGCCACAAAGCUUGAGAGCAUCUUCGGAAGCAGAGGCGGCAGCCUUCGGUGGCGCGAUAGCGACAACGUUCUCAACUAUGACACGCAAAACGCGUGCUCCGUUGAAUGGAGUUGAUCAUG [C8U U61A C95A U146G] | ≤ -4.2

From the RNAGym collection of RNA variant scans (doi:10.1073/pnas.2313332121)
